In doi:10.1101/2021.09.30.462564 (bioRxiv, 2021):

Biological target: the molecule itself
Experiment: crystal structure; His-SUMO tagged P. shigelloides NagK crystallised by the microbatch method; X-ray data at 100 K

B1: N-acetylglucosamine kinase (NagK) from Plesiomonas shigelloides (enzyme)
chain: MYYGFDIGGTKIEFGAFDADLVRVARERVATPTESYAAFLDAIVTLVNNADAEFGVKGTVGIGIPGIADVETGKLLTSNIPAAMGHTLQRDLEERLQRPVKIENDANCFALSEAWDEDLRGEPSVLGLILGTGVGGGLIFNGKVHSGRANIAGEIGHTRLPYDALKLLGMENAPIFPCGCKNSGCIDNYLSGRGFEQLYDHYFSEKLSAPEIIAHYEQGERRAVQHVERFMELLAICLANIFTCLDPHVVVLGGGLSNFELIYQELPKRLPAHLLHVAKLPKIIKARHGDAGGVRGAAFLNL
notes: N-acetylglucosamine kinase NagK of Plesiomonas shigelloides, codon optimised gene in pOPINS3C; His-SUMO tagged construct (pOPINS3C) used for crystallisation; no cleavage of the tags is described; also called PsNagK; P. shigelloides NagK; source: E. coli BL21 (DE3), purified (HisTrap, Superdex 200 size exclusion); not shown: polyhistidine, N-terminal, kept; SUMO, N-terminal, kept
binding result: binds
